Data on five molecules can be found in paper PMC8757827, “A Novel Regulation of K-antigen Capsule Synthesis in Porphyromonas gingivalis Is Driven by the Response Regulator PG0720-Directed Antisense RNA”.

For data set [1], the target named is T1, PG0720 response regulator (Porphyromonas gingivalis W83) (UniProt Q7MWB1).
T1 sequence: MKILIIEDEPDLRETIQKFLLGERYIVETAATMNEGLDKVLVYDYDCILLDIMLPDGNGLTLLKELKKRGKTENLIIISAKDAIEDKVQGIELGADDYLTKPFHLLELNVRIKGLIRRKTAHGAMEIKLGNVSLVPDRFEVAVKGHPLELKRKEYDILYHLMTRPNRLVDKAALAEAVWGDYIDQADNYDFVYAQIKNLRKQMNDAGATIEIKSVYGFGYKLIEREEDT
Description: EMSA. To be noted: 10 mM HEPES pH 7.8, 50 mM KCl, 5 mM MgCl2, 1 mM DTT, 1 mM EDTA, 1 ug poly(dI-dC), 1 ug BSA, 10% glycerol, 20 mM acetyl phosphate, room temperature 30 min …. For orientation: A gel shift assay detects complexes by their altered migration in electrophoresis.

Data set [2] has as its target T1, PG0720 response regulator (Porphyromonas gingivalis W83). Description: DNase I footprinting. The following applies: 10 mM HEPES pH 7.8, 50 mM KCl, 5 mM MgCl2, 1 mM DTT, 1 mM EDTA, 1 ug poly(dI-dC), 1 ug BSA, 10% glycerol, 20 mM acetyl phosphate, room temperature 30 min ….
Data set [3] deals with T2, PG0720 response regulator (Porphyromonas gingivalis W83, UniProt Q7MWB1 1-229).
T2 sequence: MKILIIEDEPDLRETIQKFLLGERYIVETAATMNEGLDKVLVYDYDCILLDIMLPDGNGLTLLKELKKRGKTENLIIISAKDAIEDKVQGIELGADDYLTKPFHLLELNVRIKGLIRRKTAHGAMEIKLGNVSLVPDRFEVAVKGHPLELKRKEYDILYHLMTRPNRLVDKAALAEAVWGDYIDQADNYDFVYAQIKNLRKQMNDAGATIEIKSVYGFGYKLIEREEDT
The data set is described as follows: EMSA; 20 mM acetyl phosphate; 5 mM Mg2+; up to 140 pmol protein, 3 fmol DNA; 10 mM HEPES pH 7.8, 50 mM KCl, 5 mM MgCl2, 1 mM DTT, 1 mM EDTA, 1 ug poly(dI-dC), 1 ug BSA, 10% glycerol, 20 mM acetyl phosphate, room temperature 30 min, 10 ul (50 ul for footprinting). To be noted: protein: recombinant; tags: none (N-His-SUMO removed by SUMO Express protease); chain copies: 2; label: 5' biotin; blunt.

For “ACACATCACAACAATATCTTCAATAACATACCCCACATCCGCCCGTCTTCACTACGATCTAAATAAAATTTCCCCAATGACAAAACCGCCTTATTTTAAAAATTACACATAACAGAAAAAAGAGTGATTCTCATTATACTTTCTTTGACAATCAAATCCTTTCAACGATGATTTTTGAGACCCTAATAGAGCGCAAAGGTAATTAATTATCGTCTATATTCCTAAATCCCAGTGGAATGATTCAGGAC (double strand) [PG0106 upstream promoter 248-bp]”, the binding entry in data set [1] is on record as “no binding”.

For the molecule “CAAACAAGTGCGAATCCATATGTCAGAGATTCAAATCATAGAGGAAAGAGACTAAAAATTTTCAAACGCGATCGCCCTGACAGGCTACCCCCGGGGT (double strand) [asSuGR promoter 97-bp footprint probe]”, the binding entry in data set [2] is listed as “binds”.

As for “TGTCAGGGCGATCGCGTTTGAAAATTTTTAGTCTCTTTCCTCTATGATTTGAATCTCTGACATATGG (double strand) [asSuGR promoter 67-bp]”, in data set [1], the binding result is “binds”.

Turning to “TGTCAGGGCGATCGCGTTTGAAAATTTTTAGTCTCTTTCCTCTATGATTTGAATCTCTGACATATGGATTCGCACTTGTTTGATAATTGAATGTAGCAATCATGAGATCTATAAGTGTGTAACGGTTCAAATGCGATTGTCCTGAATCATTCCA (double strand) [asSuGR promoter 154-bp]”, the binding result in data set [1] is recorded as “binds”.

B1: 77-bp region (77bpIR2) (dsDNA)
DNA 1: ATTCGCACTTGTTTGATAATTGAATGTAGCAATCATGAGATCTATAAGTGTGTAACGGTTCAAATGCGATTGTCCTG
DNA 2: CAGGACAATCGCATTTGAACCGTTACACACTTATAGATCTCATGATTGCTACATTCAATTATCAAACAAGTGCGAAT
Regarding B1, the binding result in data set [3] is “no binding”.
